Some targets named below: ZBTB7A (Homo sapiens, UniProt O95365); TFAP2A (Homo sapiens, UniProt P05549); KLF16 (Homo sapiens, UniProt Q9BXK1); SP1 (Homo sapiens, UniProt P08047); KLF10 (Homo sapiens, UniProt Q13118).
What all share (assay): competition; 150 mM NaCl, 50 mM Tris pH 8, 0.25% NP-40, 1 mM TCEP; 4 C, 2 h; 100 ug HeLa nuclear lysate; free competitor against 200 nM immobilised SP/KLF wild-type
Settings in all cases: protein: extract

The next data set has as its target T1, VEZF1 (Homo sapiens, UniProt Q14119).
T1 sequence: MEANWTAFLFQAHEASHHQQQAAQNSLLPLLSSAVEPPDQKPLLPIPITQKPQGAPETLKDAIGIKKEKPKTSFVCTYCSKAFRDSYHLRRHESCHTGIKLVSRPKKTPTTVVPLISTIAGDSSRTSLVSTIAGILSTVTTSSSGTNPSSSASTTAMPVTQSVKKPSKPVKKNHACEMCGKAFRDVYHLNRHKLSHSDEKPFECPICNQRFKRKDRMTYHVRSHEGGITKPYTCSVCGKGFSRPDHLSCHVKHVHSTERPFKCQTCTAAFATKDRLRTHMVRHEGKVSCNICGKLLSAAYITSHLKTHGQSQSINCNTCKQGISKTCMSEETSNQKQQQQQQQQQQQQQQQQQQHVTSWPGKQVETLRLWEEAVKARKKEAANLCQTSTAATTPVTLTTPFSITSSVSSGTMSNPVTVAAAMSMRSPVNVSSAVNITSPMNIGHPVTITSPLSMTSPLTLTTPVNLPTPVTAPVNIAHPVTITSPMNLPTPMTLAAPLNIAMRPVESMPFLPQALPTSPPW

The next data set concerns the target T2, ZNF281 (Homo sapiens, UniProt Q9Y2X9).
T2 sequence: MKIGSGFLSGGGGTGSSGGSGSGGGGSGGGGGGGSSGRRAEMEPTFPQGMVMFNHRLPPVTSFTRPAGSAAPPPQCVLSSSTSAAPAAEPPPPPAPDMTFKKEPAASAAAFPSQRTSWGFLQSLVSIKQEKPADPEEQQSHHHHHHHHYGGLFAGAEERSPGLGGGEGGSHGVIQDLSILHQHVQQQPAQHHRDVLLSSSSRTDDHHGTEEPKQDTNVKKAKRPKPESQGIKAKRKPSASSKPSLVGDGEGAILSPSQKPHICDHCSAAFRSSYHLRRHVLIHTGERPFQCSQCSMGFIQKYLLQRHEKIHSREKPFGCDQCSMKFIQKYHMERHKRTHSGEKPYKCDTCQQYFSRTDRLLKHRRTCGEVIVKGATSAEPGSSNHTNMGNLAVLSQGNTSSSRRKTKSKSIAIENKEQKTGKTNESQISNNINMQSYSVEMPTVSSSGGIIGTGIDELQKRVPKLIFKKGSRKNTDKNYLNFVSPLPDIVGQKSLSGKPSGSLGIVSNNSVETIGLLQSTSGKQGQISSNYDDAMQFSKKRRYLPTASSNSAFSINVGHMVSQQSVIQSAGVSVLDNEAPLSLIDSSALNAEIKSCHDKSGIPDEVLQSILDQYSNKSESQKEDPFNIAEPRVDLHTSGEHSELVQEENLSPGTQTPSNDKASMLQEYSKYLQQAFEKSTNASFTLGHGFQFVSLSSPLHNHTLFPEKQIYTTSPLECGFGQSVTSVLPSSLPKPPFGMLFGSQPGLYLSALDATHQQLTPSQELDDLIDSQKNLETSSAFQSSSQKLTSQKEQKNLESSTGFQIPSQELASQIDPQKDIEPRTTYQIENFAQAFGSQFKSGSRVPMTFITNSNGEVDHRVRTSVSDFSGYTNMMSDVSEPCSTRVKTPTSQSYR

Chain of SP1 (P08047 whole entry): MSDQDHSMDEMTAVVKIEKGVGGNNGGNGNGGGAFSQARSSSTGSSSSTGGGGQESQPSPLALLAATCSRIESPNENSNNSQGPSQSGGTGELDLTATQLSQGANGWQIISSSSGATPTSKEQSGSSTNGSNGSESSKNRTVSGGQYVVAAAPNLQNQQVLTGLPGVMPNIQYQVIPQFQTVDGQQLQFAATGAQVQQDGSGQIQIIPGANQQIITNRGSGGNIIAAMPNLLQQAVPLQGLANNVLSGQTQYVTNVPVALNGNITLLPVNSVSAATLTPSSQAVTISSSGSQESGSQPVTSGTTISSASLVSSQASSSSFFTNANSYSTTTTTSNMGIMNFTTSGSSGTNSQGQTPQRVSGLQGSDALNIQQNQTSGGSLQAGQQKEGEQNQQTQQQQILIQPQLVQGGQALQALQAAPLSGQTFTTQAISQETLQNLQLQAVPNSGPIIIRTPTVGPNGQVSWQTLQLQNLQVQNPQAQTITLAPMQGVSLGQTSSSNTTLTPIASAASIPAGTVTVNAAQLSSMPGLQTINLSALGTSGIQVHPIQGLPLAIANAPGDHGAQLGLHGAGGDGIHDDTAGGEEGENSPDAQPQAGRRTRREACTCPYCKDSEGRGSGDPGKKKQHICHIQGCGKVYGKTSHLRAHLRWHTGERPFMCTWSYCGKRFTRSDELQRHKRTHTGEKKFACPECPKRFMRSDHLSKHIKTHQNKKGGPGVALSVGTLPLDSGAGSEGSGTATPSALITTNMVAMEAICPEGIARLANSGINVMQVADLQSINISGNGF
Chain of ZBTB7A (O95365 whole entry): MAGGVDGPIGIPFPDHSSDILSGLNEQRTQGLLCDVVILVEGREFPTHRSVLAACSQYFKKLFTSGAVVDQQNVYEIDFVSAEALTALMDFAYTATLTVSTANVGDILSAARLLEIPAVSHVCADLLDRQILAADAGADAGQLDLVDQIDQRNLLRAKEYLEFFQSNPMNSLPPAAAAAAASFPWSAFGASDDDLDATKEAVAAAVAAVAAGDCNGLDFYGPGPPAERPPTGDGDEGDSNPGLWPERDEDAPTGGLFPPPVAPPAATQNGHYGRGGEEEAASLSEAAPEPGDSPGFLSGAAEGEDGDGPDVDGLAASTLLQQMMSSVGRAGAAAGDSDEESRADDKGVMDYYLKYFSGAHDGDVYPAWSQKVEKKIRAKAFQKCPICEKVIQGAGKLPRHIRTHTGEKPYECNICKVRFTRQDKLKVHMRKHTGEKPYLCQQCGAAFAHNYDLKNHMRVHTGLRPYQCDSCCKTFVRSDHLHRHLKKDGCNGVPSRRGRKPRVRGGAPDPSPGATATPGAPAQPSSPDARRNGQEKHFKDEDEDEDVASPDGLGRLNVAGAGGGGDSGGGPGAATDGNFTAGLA
Chain of KLF10 (Q13118 whole entry): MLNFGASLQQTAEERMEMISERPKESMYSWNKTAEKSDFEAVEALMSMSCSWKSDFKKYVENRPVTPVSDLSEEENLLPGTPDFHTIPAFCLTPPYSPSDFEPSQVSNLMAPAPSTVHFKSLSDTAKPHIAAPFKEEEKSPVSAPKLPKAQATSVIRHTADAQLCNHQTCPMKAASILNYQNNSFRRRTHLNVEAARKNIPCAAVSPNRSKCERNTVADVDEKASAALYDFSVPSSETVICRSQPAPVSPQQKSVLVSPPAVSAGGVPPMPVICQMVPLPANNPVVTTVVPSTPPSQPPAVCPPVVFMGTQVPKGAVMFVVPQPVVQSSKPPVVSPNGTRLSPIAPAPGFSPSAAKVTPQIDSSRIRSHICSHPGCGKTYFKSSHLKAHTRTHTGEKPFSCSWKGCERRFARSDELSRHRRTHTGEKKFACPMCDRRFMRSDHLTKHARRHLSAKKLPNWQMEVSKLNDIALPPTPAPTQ
Chain of TFAP2A (P05549 whole entry): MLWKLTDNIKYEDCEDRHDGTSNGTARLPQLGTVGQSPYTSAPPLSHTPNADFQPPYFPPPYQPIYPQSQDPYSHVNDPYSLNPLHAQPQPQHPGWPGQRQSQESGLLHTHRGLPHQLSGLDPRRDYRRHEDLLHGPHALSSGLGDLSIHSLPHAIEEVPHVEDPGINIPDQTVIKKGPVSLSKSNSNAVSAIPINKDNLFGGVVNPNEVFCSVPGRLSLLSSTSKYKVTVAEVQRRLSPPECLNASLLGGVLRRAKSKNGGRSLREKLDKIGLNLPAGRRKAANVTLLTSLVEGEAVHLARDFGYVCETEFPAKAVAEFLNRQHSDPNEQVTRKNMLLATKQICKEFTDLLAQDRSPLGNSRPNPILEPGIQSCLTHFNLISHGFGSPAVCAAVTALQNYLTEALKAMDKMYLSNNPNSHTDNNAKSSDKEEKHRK
Chain of KLF16 (Q9BXK1 whole entry): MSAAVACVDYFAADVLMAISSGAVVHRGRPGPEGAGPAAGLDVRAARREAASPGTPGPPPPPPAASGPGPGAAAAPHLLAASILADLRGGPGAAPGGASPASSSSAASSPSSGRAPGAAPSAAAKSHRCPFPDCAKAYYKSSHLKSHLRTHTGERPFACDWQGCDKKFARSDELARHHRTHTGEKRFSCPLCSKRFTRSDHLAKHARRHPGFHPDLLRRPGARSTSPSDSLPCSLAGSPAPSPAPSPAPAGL

B1: SP/KLF wild-type (dsDNA)
DNA 1: GAGAGCCCCGCCCCCTGGCT
DNA 2: AGCCAGGGGGCGGGGCTCTC
In the case of B1, the IC50 in the data set with ZBTB7A was 263 nM; with VEZF1 it was 270 nM; in the data set with TFAP2A, 215 nM; with KLF16, 176 nM; with SP1, 192 nM; with KLF10, 111 nM. The molecule also returned a concentration for half-maximal inhibition (IC50) in the data set with ZNF281 of 176 nM.

For orientation: IC50 means the concentration at which inhibition is half-maximal. A higher IC50 goes with weaker potency.

The values are drawn from article PMC5916898, “Global profiling of protein–DNA and protein–nucleosome binding affinities using quantitative mass spectrometry”.
